Laboratory results as given in the RNAGym collection of RNA variant scans (doi:10.1073/pnas.2313332121).

B1: TPR t1 (parent)
chain: GACCAAUCUGCCCUCAGAGCUCGAGAACAUCUUCGGAUGCAGAGGAGGCAGGCUUCGGUGGCGCGAUAGCGCCAACGUCCUCAACCUCCAAUGCAUCCCACCACAUGAUGAUGCCUGAAGAGCCUUGGUUUUUUG

Variants of: B1
Test: polymerase ribozyme fitness, log enrichment relative to wild type (log ratio); higher = more active; in vitro selection for triplet polymerase activity
In short: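 Fitness compares each genotype's enrichment to that of the wild type on a logarithmic scale, averaging replicates with inverse-variance weights. The logarithm is base 2. Enrichment came from Illumina sequencing of input and output libraries after one triplicate round of in vitro selection, which included frozen incubation at −7 °C, of PCR-built, transcribed mutant libraries of each subunit of a heterodimeric triplet polymerase ribozyme. Only genotypes with ≥10 input reads and ≥1 read per output were kept.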

Variant | polymerase ribozyme fitness (log ratio)
C73U C86U U96C A119G U131C | 0.735
A74G A91C C124G | 0.0731
C72U G110C G128U | -6.47
C73A G127C | -1.98
A74C U130A U131A U133A | -2.13
C73A C89U G110C | -5.15
C73U C94U U129A | -1.17
C72U U106A | 0.0802
C73A G135U | -1.25
C73U U87A A91U U112A U116G | -4.55
C73U C85A G120U | -0.527
C72U C114U C115U | -7
C73A U133A | 0.106
C73A C102U | -0.943
C73A G110A G120A | -1.61
C73G C98U U129C | -1.94
C73A U109G | -4.56
C72U C94G U132A | -1.02
C73G A121C G122A | 0.495
C72U U87G C104A | -0.492
C72U U130C | -0.237

Variant | polymerase ribozyme fitness (log ratio)
C72U U130G | -0.892
C72U U130A | -1.42
C73U U87C C88U A111G C123A | -2.06
C72U G117C G120U U131G | -5.53
C73U U96G | -0.308
C72U G122A | -0.576
C73U C114A | -1.19
C73U C114U | -1.31
C72G U109G U125G | -4.97
C73A A90U | -3.12
A74G A95U | -0.0785
A74C U87G U129C | -0.576
C73A C115G | -2.61
C73A C115U | -1.36
C72G U106A U129A | -1.25
C72U C79U G122A | -0.67
C72U C79A | -3.07
C72U U125G | -2.26
C72U U125C | -1.92
C72U A121C U131C | 0.346
C72U U96A A118G | -1.7

Variant | polymerase ribozyme fitness (log ratio)
C73U C79G A119G C123A | -0.377
C73G G117C | -3.91
C73G G117U | -3.09
C73G G117A | -0.876
C72U U132G G135U | -0.759
A74C C89A A91G C102A U109G | -5.5
A74G A103G G117U U133G | -6.53
C72U U78C A83C | -0.433
C73G C89A C99A G110C | -6.57
C73G A95C | -2.83
C73U G120U | 0.0471
C72U C73A A83U U109A | -5.82
C73U G113U | -3.18
C73U G113C | -1.54
C73U C98U | -0.593
C73A C97A | -4.87
C72G U87C G93A C104G C123G | -6.53
C72G U130A | -0.458
A74C A83C | -0.243
C72U U78A A90U C123U | -1.05
C72U A84C C124U | 1.07

Variant | polymerase ribozyme fitness (log ratio)
A74C U92C G127A | -2.3
C73G U78A C94A U125G | -1.59
C73U C86U | 0.0966
C73U C86G | -2.49
C73A U92A C104U | -2.28
C72U U96C G135U | -1.42
C72U C124A | 1.54
C72U C124U | 0.818
C73U C79A A95G | -0.961
C72U U92G | -2.59
C72U C80U C82A U129G | -2.75
C72U C97U G120A G122A | -1.22
C72U G113C | -2.1
C72U G113U | -2.87
A74C U96G | -1.28
C72G U81C U87C A100U | -2.07
C72U A118U | 0.0221
C73A C86A | -0.668
C72G U125A U133C | -0.433
C72G U129C U130A | -1.89
C72U U78C A83U A90G A121G | 1.89
